Source: PMC7511963 (NPJ Vaccines, 2020)

T1: HPV16 L1L2 pseudovirus (Human papillomavirus type 16, L1 …)
T1 construct: also called HPV16 PsV; HPV16 PsVs; copies: 360 +
T1 chain: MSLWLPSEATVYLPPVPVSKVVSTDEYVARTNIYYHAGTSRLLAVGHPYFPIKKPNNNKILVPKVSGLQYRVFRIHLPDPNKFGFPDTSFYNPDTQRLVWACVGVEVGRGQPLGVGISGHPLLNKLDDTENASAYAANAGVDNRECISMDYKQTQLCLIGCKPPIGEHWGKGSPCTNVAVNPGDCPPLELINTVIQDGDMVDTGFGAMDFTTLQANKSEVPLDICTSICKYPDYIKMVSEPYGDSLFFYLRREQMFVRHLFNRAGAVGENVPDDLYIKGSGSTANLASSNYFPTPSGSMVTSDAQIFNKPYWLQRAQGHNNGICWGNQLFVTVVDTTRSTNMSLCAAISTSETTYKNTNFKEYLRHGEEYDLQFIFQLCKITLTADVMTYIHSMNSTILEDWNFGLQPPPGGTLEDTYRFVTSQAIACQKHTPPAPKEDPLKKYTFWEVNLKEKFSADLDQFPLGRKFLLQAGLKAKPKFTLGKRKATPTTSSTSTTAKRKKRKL


Experiments:
[1] = target: HPV16 L1L2 pseudovirus (human papillomavirus type 16) (UniProt P03101)
HPV16 L1L2 pseudovirus = target: T1, HPV16 L1L2 pseudovirus; assay: cryo-EM structure; details: both partners purified

Binder | PsV-based neutralization assay on 293FT cells: IC50, the antibody concentration required to block viral entry by 50% [1] [ng/mL] | stoichiometry N (HPV16 L1L2 pseudovirus) [Fabs per capsid]
rabbit monoclonal antibody H16.001 (antibody, V domains shown) VH: QSVKESEGRLVTPGTPLTLTCTASGFTMSRYHMTWVRQAPGKGLEWIGIIYARNSDTYYANWAKGRFTISKTSTTVDLKITSPTIEDTATYFCARVDSDSSGAFDRLDLWGQGTLVTVSS VL: DPMLTQTAASVEVAVGGTVTIKCQASQSIGGYLSWYQQKPGQRPKLLIYRASTLASGVPSRFKGSGSGTEYTLTFSGVECADAAAYYCQQGYTSSDINNAFGGGTEVVVK | 0.4 | –
H16.001 Fab (Fab, V domains shown, also called Fab H16.001; H16.001 Fabs) VH: QSVKESEGRLVTPGTPLTLTCTASGFTMSRYHMTWVRQAPGKGLEWIGIIYARNSDTYYANWAKGRFTISKTSTTVDLKITSPTIEDTATYFCARVDSDSSGAFDRLDLWGQGTLVTVSS VL: DPMLTQTAASVEVAVGGTVTIKCQASQSIGGYLSWYQQKPGQRPKLLIYRASTLASGVPSRFKGSGSGTEYTLTFSGVECADAAAYYCQQGYTSSDINNAFGGGTEVVVK | – | 360
